# Data: article PMC5296908
# Target: ADAMTS17-PCD (human)
# Experiment: SPR; ADAMTS17-PCD (3300 RU) or ADAMTS17-AD (2530 RU) amine-coupled to a CM5 chip, BIAcore 3000; analytes flowed at 20 μl/min; 25 °C; TBS with 2 mM CaCl2 and 0.005% SP20; 1:1 stoichiometry assumed
substance,measurement,value
ADAMTS17-PCD (domain or fragment),Kd,1400 nM
